Where a chain is given by its changes, count along the chain named.
T1: Ep-CAM (UniProt P16422 24-265, limits assumed)
T1 construct: Immobilised on the Biacore chip; construct not described
T1 sequence (looked up): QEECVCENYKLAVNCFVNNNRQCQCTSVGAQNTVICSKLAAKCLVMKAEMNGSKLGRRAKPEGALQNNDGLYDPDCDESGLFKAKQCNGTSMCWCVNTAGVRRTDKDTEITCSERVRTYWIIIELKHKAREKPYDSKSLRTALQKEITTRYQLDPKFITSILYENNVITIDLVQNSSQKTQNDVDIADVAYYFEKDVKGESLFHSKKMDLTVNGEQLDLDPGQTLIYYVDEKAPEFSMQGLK

T2: Ep-CAM (UniProt P16422 24-265, limits assumed)
T2 sequence (looked up): T1 sequence (looked up)

B1: ING-1 Fab, light chain E98P (Fab, V domains shown)
VH: QIQLVQSGPELKKPGETVKISCKASGYTFTKYGMNWVKQAPGKGLKWMGWINTYTEEPTYGDDFKGRFAFSLETSASTANLQINNLKSEDTATYFCARFGSAVDYWGQGTSVTVSS
VL: DIVMTQAAFSNPVTLGTSGSISCRSSKSLLHSNGITYLYWYLQKPGQSPQLLIYQMSNLASGVPDRFSSSGSGTDFTLRISRVEAEDVGVYYCAQNLPLPRTFGGGTKLEMKR
notes: Fab in periplasmic extract
B2: ING-1 Fab, light chain S57G (Fab, V domains shown)
VH: B1 VH
VL: B1 VL with S57G, P98E
notes: Fab in periplasmic extract
B3: ING-1 Fab, light chain K27T (Fab, V domains shown)
VH: B1 VH
VL: B1 VL with K27T, P98E
notes: Fab in periplasmic extract
B4: ING-1 Fab, light chain R101V (Fab, V domains shown)
VH: B1 VH
VL: B1 VL with P98E, R101V
notes: Fab in periplasmic extract
B5: ING-1 Fab, light chain P100L (Fab, V domains shown)
VH: B1 VH
VL: B1 VL with P98E, P100L
notes: Fab in periplasmic extract
B6: ING-1 Fab, light chain R101I (Fab, V domains shown)
VH: B1 VH
VL: B1 VL with P98E, R101I
notes: Fab in periplasmic extract
B7: ING-1 Fab, light chain P100T (Fab, V domains shown)
VH: B1 VH
VL: B1 VL with P98E, P100T
notes: Fab in periplasmic extract
B8: ING-1 Fab, light chain Y54I (Fab, V domains shown)
VH: B1 VH
VL: B1 VL with Y54I, P98E
notes: Fab in periplasmic extract
B9: ING-1 Fab, light chain M56V (Fab, V domains shown)
VH: B1 VH
VL: B1 VL with M56V, P98E
notes: Fab in periplasmic extract
B10: ING-1 Fab, light chain L97G (Fab, V domains shown)
VH: B1 VH
VL: B1 VL with L97G, P98E
notes: Fab in periplasmic extract
B11: ING-1 Fab, light chain N33V (Fab, V domains shown)
VH: B1 VH
VL: B1 VL with N33V, P98E
notes: Fab in periplasmic extract
B12: ING-1 Fab, light chain R101A (Fab, V domains shown)
VH: B1 VH
VL: B1 VL with P98E, R101A
notes: Fab in periplasmic extract
B13: ING-1 Fab, light chain N33T (Fab, V domains shown)
VH: B1 VH
VL: B1 VL with N33T, P98E
notes: Fab in periplasmic extract
B14: ING-1 Fab, light chain L97A (Fab, V domains shown)
VH: B1 VH
VL: B1 VL with L97A, P98E
notes: Fab in periplasmic extract
B15: ING-1 Fab, light chain M56G (Fab, V domains shown)
VH: B1 VH
VL: B1 VL with M56G, P98E
notes: Fab in periplasmic extract
B16: ING-1 Fab, light chain L99T (Fab, V domains shown)
VH: B1 VH
VL: B1 VL with P98E, L99T
notes: Fab in periplasmic extract
B17: ING-1 Fab, light chain R101P (Fab, V domains shown)
VH: B1 VH
VL: B1 VL with P98E, R101P
notes: Fab in periplasmic extract
B18: ING-1 Fab, light chain Q55G (Fab, V domains shown)
VH: B1 VH
VL: B1 VL with Q55G, P98E
notes: Fab in periplasmic extract
B19: ING-1 Fab, light chain R101G (Fab, V domains shown)
VH: B1 VH
VL: B1 VL with P98E, R101G
notes: Fab in periplasmic extract
B20: ING-1 Fab, light chain I35L (Fab, V domains shown)
VH: B1 VH
VL: B1 VL with I35L, P98E
notes: Fab in periplasmic extract
B21: ING-1 Fab, light chain L99P (Fab, V domains shown)
VH: B1 VH
VL: B1 VL with P98E, L99P
notes: Fab in periplasmic extract
B22: ING-1 Fab, light chain I35P (Fab, V domains shown)
VH: B1 VH
VL: B1 VL with I35P, P98E
notes: Fab in periplasmic extract
B23: ING-1 Fab, light chain M56T (Fab, V domains shown)
VH: B1 VH
VL: B1 VL with M56T, P98E
notes: Fab in periplasmic extract
B24: ING-1 Fab, light chain R101T (Fab, V domains shown)
VH: B1 VH
VL: B1 VL with P98E, R101T
notes: Fab in periplasmic extract
B25: ING-1 Fab, light chain P100A (Fab, V domains shown)
VH: B1 VH
VL: B1 VL with P98E, P100A
notes: Fab in periplasmic extract
B26: ING-1 Fab, light chain L29I (Fab, V domains shown)
VH: B1 VH
VL: B1 VL with L29I, P98E
notes: Fab in periplasmic extract
B27: ING-1 Fab, light chain Y37V (Fab, V domains shown)
VH: B1 VH
VL: B1 VL with Y37V, P98E
notes: Fab in periplasmic extract
B28: ING-1 Fab, light chain Y37A (Fab, V domains shown)
VH: B1 VH
VL: B1 VL with Y37A, P98E
notes: Fab in periplasmic extract
B29: ING-1 Fab, light chain Y37T (Fab, V domains shown)
VH: B1 VH
VL: B1 VL with Y37T, P98E
notes: Fab in periplasmic extract
B30: ING-1 Fab, light chain Y54A (Fab, V domains shown)
VH: B1 VH
VL: B1 VL with Y54A, P98E
notes: Fab in periplasmic extract
B31: ING-1 Fab, light chain Y37I (Fab, V domains shown)
VH: B1 VH
VL: B1 VL with Y37I, P98E
notes: Fab in periplasmic extract
B32: ING-1 Fab, light chain L99G (Fab, V domains shown)
VH: B1 VH
VL: B1 VL with P98E, L99G
notes: Fab in periplasmic extract
B33: ING-1 Fab, light chain L29P (Fab, V domains shown)
VH: B1 VH
VL: B1 VL with L29P, P98E
notes: Fab in periplasmic extract
B34: ING-1 Fab, heavy chain Y105A (Fab, V domains shown)
VH: B1 VH with Y105A
VL: B1 VL with P98E
notes: Fab in periplasmic extract
B35: ING-1 Fab, heavy chain Y105G (Fab, V domains shown)
VH: B1 VH with Y105G
VL: B1 VL with P98E
notes: Fab in periplasmic extract
B36: ING-1 Fab, heavy chain Y32P (Fab, V domains shown)
VH: B1 VH with Y32P
VL: B1 VL with P98E
notes: Fab in periplasmic extract
B37: ING-1 Fab, heavy chain Y105P (Fab, V domains shown)
VH: B1 VH with Y105P
VL: B1 VL with P98E
notes: Fab in periplasmic extract
B38: ING-1 Fab, heavy chain W50T (Fab, V domains shown)
VH: B1 VH with W50T
VL: B1 VL with P98E
notes: Fab in periplasmic extract
B39: ING-1 Fab, heavy chain Y32I (Fab, V domains shown)
VH: B1 VH with Y32I
VL: B1 VL with P98E
notes: Fab in periplasmic extract
B40: ING-1 Fab, heavy chain Y32L (Fab, V domains shown)
VH: B1 VH with Y32L
VL: B1 VL with P98E
notes: Fab in periplasmic extract
B41: ING-1 Fab, heavy chain W50V (Fab, V domains shown)
VH: B1 VH with W50V
VL: B1 VL with P98E
notes: Fab in periplasmic extract
B42: ING-1 Fab, heavy chain Y32G (Fab, V domains shown)
VH: B1 VH with Y32G
VL: B1 VL with P98E
notes: Fab in periplasmic extract
B43: ING-1 Fab, heavy chain Y32A (Fab, V domains shown)
VH: B1 VH with Y32A
VL: B1 VL with P98E
notes: Fab in periplasmic extract

Molecular target: T1, Ep-CAM
Assay: Biacore, Fab periplasmic extract

binding result	fold difference in affinity vs original ING-1 [fold]	Binder
no binding		B1
no binding		B2
no binding		B3
no binding		B4
	0.03	B5
no binding		B6
	0.08	B7
no binding		B8
no binding		B9
no binding		B10
no binding		B11
no binding		B12
	0.6	B13
	0.5	B14
	0.8	B15
	0.09	B16
no binding		B17

binding result	fold difference in affinity vs original ING-1 [fold]	Binder
	0.7	B18
no binding		B19
	0.6	B20
	0.01	B21
	0.7	B22
	0.8	B23
no binding		B24
	0.05	B25
no binding		B26
no binding		B27
	0.04	B28
no binding		B29
	0.08	B30
	0.9	B31
	0.02	B32
no binding		B33

Molecular target: T2, Ep-CAM
Assay: Biacore, Fab periplasmic extract on immobilised Epcam

fold difference in affinity vs original [fold]	binding result	Binder
0.08		B34
	no binding	B35
0.01		B36
	no binding	B37
0.03		B38
0.03		B39
0.05		B40
0.02		B41
0.02		B42
0.01		B43

Reference: patent publication US20110118131A1 (published 2011)
